Laboratory results from patent US20190119358A1.
Each block holds one binder with its values, some of them ahead of it. *1 amine or outer side, *2 acyl side, *3 side chain or, on linkers, in order; H or OH if unused. Bridges are numbered along the chain shown (N, C = ends). Where no end group is shown, it is not given here. [ ]: non-standard residue; d: D form. UBX = ((2S,3R)-3-amino-2-hydroxy-4-phenylbutanoyl)-L-leucine, CC(C)C[C@H](NC(=O)[C@@H](O)[C@@H](Cc1ccccc1)N[*:1])C(=O)[*:2]; TDSPA = (R)-2-amino-3-(tert-butyldisulfanyl)propanoic acid, CC(C)(C)SSC[C@H](N[*:1])C(=O)[*:2]; m‑xylylene = m-xylylene thioether bridge between Cys; Trp(7-aza) = N[C@@H](Cc1c[nH]c2ncccc12)C(=O)O; NMePhe(4-F) = CN[C@@H](Cc1ccc(F)cc1)C(=O)O; mXylylene = c1cc(C[*:1])cc(C[*:2])c1; NMeY = CN[C@@H](Cc1ccc(O)cc1)C(=O)O; Glutaryl = O=C(CCCC(=O)[*:2])[*:1]; PEG4 = NCCOCCOCCOCCOCCC(=O)O; Phg = N[C@H](C(=O)O)c1ccccc1; Tle = CC(C)(C)[C@H](N)C(=O)O; NMeS = CN[C@@H](CO)C(=O)O; NMeA = CN[C@@H](C)C(=O)O; Pra = C#CC[C@H](N)C(=O)O; Nva = CCC[C@H](N)C(=O)O; Ahp = NCCCCCCC(=O)O; Sar = CNCC(=O)O

Target: GMPPNP-loaded H-Ras or GTP-loaded K-Ras
Test: FP competition, displacement of probe R4007 from Ras

B2: R4112 (peptide)
peptide: Ac-CY[Tle]KH[NMeA][Phg][Trp(7-aza)]Y[NMePhe(4-F)][Sar]C-NH2
modifications: linker 1-12 via mXylylene
SMILES: CC(=O)N[C@H]1CSCc2cccc(c2)CSC[C@@H](C(N)=O)NC(=O)CN(C)C(=O)[C@H](Cc2ccc(F)cc2)N(C)C(=O)[C@H](Cc2ccc(O)cc2)NC(=O)[C@H](Cc2c[nH]c3ncccc23)NC(=O)[C@H](c2ccccc2)NC(=O)[C@H](C)N(C)C(=O)[C@H](Cc2c[nH]cn2)NC(=O)[C@H](CCCCN)NC(=O)[C@H](C(C)(C)C)NC(=O)[C@H](Cc2ccc(O)cc2)NC1=O
IC50: 21.4 nM

Binder: Ac-[Nva]CY[Tle]KH[NMeA][Phg][Trp(7-aza)]Y[NMePhe(4-F)][Sar]CGCMSCKCVLS-NH2 (linker 2-13 via mXylylene; cysteine pairing not given here) [R4116]
IC50: 35.7 nM

Binder: [Nva]CY[Tle]KH[NMeA][Phg][Trp(7-aza)]Y[NMePhe(4-F)][Sar]C[dS]KG[TDSPA]VIM (linker 2-13 via mXylylene) [R4113]
IC50: 32.7 nM

B3: R4118 (peptide)
peptide: Ac-[Nva]CY[Tle]KH[NMeA][Phg][Trp(7-aza)]Y[NMePhe(4-F)][NMeS]C-NH2
modifications: linker 2-13 via mXylylene
SMILES: CCC[C@H](NC(C)=O)C(=O)N[C@H]1CSCc2cccc(c2)CSC[C@@H](C(N)=O)NC(=O)[C@H](CO)N(C)C(=O)[C@H](Cc2ccc(F)cc2)N(C)C(=O)[C@H](Cc2ccc(O)cc2)NC(=O)[C@H](Cc2c[nH]c3ncccc23)NC(=O)[C@H](c2ccccc2)NC(=O)[C@H](C)N(C)C(=O)[C@H](Cc2c[nH]cn2)NC(=O)[C@H](CCCCN)NC(=O)[C@H](C(C)(C)C)NC(=O)[C@H](Cc2ccc(O)cc2)NC1=O
IC50: 51.5 nM

Binder: Ac-[Nva]CY[Tle]KH[NMeA][Phg][Trp(7-aza)]Y[NMePhe(4-F)][Sar]C[dS][dA]K[TDSPA]VIM (linker 2-13 via mXylylene) [R4111]
IC50: 20.8 nM

Binder: Ac-[Nva]CY[Tle]KH[NMeA][Phg][Trp(7-aza)]Y[NMePhe(4-F)][Sar]CGCGVGIM (linker 2-13 via mXylylene) [R4119]
IC50: 64.4 nM

Binder: Ac-[Nva]CY[Tle]KH[NMeA][Phg][Trp(7-aza)]Y[NMePhe(4-F)][Sar]C[dS]KG[TDSPA]VVL (linker 2-13 via mXylylene) [R4110]
IC50: 16.4 nM

Binder: [Nva]CY[Tle]KH[NMeA][Phg][Trp(7-aza)]Y[NMePhe(4-F)][Sar]C[dS]KGCVIM (linker 2-13 via mXylylene) [R4114]
IC50: 32.7 nM

B7: R4106 (peptide)
peptide: [UBX][Ahp][Nva]CY[Tle]KH[NMeA][Phg][Trp(7-aza)]Y[NMePhe(4-F)][Sar]C-NH2
modifications: linker 4-15 via mXylylene; N-terminus assumed
SMILES: CCC[C@H](NC(=O)CCCCCCNC(=O)[C@H](CC(C)C)NC(=O)[C@@H](O)[C@H](N)Cc1ccccc1)C(=O)N[C@H]1CSCc2cccc(c2)CSC[C@@H](C(N)=O)NC(=O)CN(C)C(=O)[C@H](Cc2ccc(F)cc2)N(C)C(=O)[C@H](Cc2ccc(O)cc2)NC(=O)[C@H](Cc2c[nH]c3ncccc23)NC(=O)[C@H](c2ccccc2)NC(=O)[C@H](C)N(C)C(=O)[C@H](Cc2c[nH]cn2)NC(=O)[C@H](CCCCN)NC(=O)[C@H](C(C)(C)C)NC(=O)[C@H](Cc2ccc(O)cc2)NC1=O
IC50: 8.38 nM

Binder: Ac-[Nva]CY[Tle]KH[NMeA][Phg][Trp(7-aza)]Y[NMePhe(4-F)][Sar]C (linker 2-13 via mXylylene) [R4108]
IC50: 9.45 nM

B8: R4117 (peptide)
peptide: Ac-[Nva]C[NMeY][Tle]KH[NMeA][Phg][Trp(7-aza)]Y[NMePhe(4-F)][Sar]C-NH2
modifications: linker 2-13 via mXylylene
SMILES: CCC[C@H](NC(C)=O)C(=O)N[C@H]1CSCc2cccc(c2)CSC[C@@H](C(N)=O)NC(=O)CN(C)C(=O)[C@H](Cc2ccc(F)cc2)N(C)C(=O)[C@H](Cc2ccc(O)cc2)NC(=O)[C@H](Cc2c[nH]c3ncccc23)NC(=O)[C@H](c2ccccc2)NC(=O)[C@H](C)N(C)C(=O)[C@H](Cc2c[nH]cn2)NC(=O)[C@H](CCCCN)NC(=O)[C@H](C(C)(C)C)NC(=O)[C@H](Cc2ccc(O)cc2)N(C)C1=O
IC50: 48.3 nM

Binder: Ac-[Nva]CY[Tle]KH[NMeA][Phg][Trp(7-aza)]Y[NMePhe(4-F)][Sar]C[dS]KG[TDSPA]VIM (linker 2-13 via mXylylene) [R4109]
IC50: 14.2 nM

B9: R4115 (peptide)
peptide: Ac-[Nva]CY[Tle]KH[NMeA][Phg]WY[NMePhe(4-F)][Sar]C-NH2
modifications: linker 2-13 via mXylylene
SMILES: CCC[C@H](NC(C)=O)C(=O)N[C@H]1CSCc2cccc(c2)CSC[C@@H](C(N)=O)NC(=O)CN(C)C(=O)[C@H](Cc2ccc(F)cc2)N(C)C(=O)[C@H](Cc2ccc(O)cc2)NC(=O)[C@H](Cc2c[nH]c3ccccc23)NC(=O)[C@H](c2ccccc2)NC(=O)[C@H](C)N(C)C(=O)[C@H](Cc2c[nH]cn2)NC(=O)[C@H](CCCCN)NC(=O)[C@H](C(C)(C)C)NC(=O)[C@H](Cc2ccc(O)cc2)NC1=O
IC50: 34.1 nM

B10: R4107 (peptide)
peptide: Ac-[Nva]CY[Tle]KH[NMeA][Phg][Trp(7-aza)]Y[NMePhe(4-F)][Sar]C[PEG4][Pra]-NH2
modifications: linker 2-13 via mXylylene
SMILES: C#CC[C@H](NC(=O)CCOCCOCCOCCOCCNC(=O)[C@@H]1CSCc2cccc(c2)CSC[C@H](NC(=O)[C@H](CCC)NC(C)=O)C(=O)N[C@@H](Cc2ccc(O)cc2)C(=O)N[C@@H](C(C)(C)C)C(=O)N[C@@H](CCCCN)C(=O)N[C@@H](Cc2c[nH]cn2)C(=O)N(C)[C@@H](C)C(=O)N[C@@H](c2ccccc2)C(=O)N[C@@H](Cc2c[nH]c3ncccc23)C(=O)N[C@@H](Cc2ccc(O)cc2)C(=O)N(C)[C@@H](Cc2ccc(F)cc2)C(=O)N(C)CC(=O)N1)C(N)=O
IC50: 9.42 nM

These reach a lower IC50. Values come first.

IC50: 2 nM
B1: R4103 (peptide)
peptide: Glutaryl-[Nva]CY[Tle]KH[NMeA][Phg][Trp(7-aza)]Y[NMePhe(4-F)][Sar]C-NH2
modifications: linker 2-13 via mXylylene
SMILES: CCC[C@H](NC(=O)CCCC(=O)O)C(=O)N[C@H]1CSCc2cccc(c2)CSC[C@@H](C(N)=O)NC(=O)CN(C)C(=O)[C@H](Cc2ccc(F)cc2)N(C)C(=O)[C@H](Cc2ccc(O)cc2)NC(=O)[C@H](Cc2c[nH]c3ncccc23)NC(=O)[C@H](c2ccccc2)NC(=O)[C@H](C)N(C)C(=O)[C@H](Cc2c[nH]cn2)NC(=O)[C@H](CCCCN)NC(=O)[C@H](C(C)(C)C)NC(=O)[C@H](Cc2ccc(O)cc2)NC1=O

IC50: 7.92 nM
B4: R4002 (peptide)
peptide: [Nva]CY[Tle]KH[NMeA][Phg][Trp(7-aza)]Y[NMePhe(4-F)][Sar]C-NH2
modifications: linker 2-13 via mXylylene; N-terminus assumed
SMILES: CCC[C@H](N)C(=O)N[C@H]1CSCc2cccc(c2)CSC[C@@H](C(N)=O)NC(=O)CN(C)C(=O)[C@H](Cc2ccc(F)cc2)N(C)C(=O)[C@H](Cc2ccc(O)cc2)NC(=O)[C@H](Cc2c[nH]c3ncccc23)NC(=O)[C@H](c2ccccc2)NC(=O)[C@H](C)N(C)C(=O)[C@H](Cc2c[nH]cn2)NC(=O)[C@H](CCCCN)NC(=O)[C@H](C(C)(C)C)NC(=O)[C@H](Cc2ccc(O)cc2)NC1=O

IC50: 1.82 nM
Binder: Ac-[Nva]CY[Tle]KH[NMeA][Phg][Trp(7-aza)]Y[NMePhe(4-F)][Sar]C[dS][dA]GCVIM (linker 2-13 via mXylylene) [R4102]

IC50: 3.31 nM
Binder: Ac-[Nva]CY[Tle]KH[NMeA][Phg][Trp(7-aza)]Y[NMePhe(4-F)][Sar]C[dS]KGCVIM (linker 2-13 via mXylylene) [R4105]

IC50: 3.29 nM
B5: R4104 (peptide)
peptide: Ac-SCY[Tle]KH[NMeA][Phg][Trp(7-aza)]Y[NMePhe(4-F)][Sar]C-NH2
modifications: linker 2-13 via mXylylene
SMILES: CC(=O)N[C@@H](CO)C(=O)N[C@H]1CSCc2cccc(c2)CSC[C@@H](C(N)=O)NC(=O)CN(C)C(=O)[C@H](Cc2ccc(F)cc2)N(C)C(=O)[C@H](Cc2ccc(O)cc2)NC(=O)[C@H](Cc2c[nH]c3ncccc23)NC(=O)[C@H](c2ccccc2)NC(=O)[C@H](C)N(C)C(=O)[C@H](Cc2c[nH]cn2)NC(=O)[C@H](CCCCN)NC(=O)[C@H](C(C)(C)C)NC(=O)[C@H](Cc2ccc(O)cc2)NC1=O

IC50: 1.45 nM
B6: R4101 (peptide)
peptide: Ac-[Nva]CY[Tle]KH[NMeA][Phg][Trp(7-aza)]Y[NMePhe(4-F)][NMeA]C-NH2
modifications: linker 2-13 via mXylylene
SMILES: CCC[C@H](NC(C)=O)C(=O)N[C@H]1CSCc2cccc(c2)CSC[C@@H](C(N)=O)NC(=O)[C@H](C)N(C)C(=O)[C@H](Cc2ccc(F)cc2)N(C)C(=O)[C@H](Cc2ccc(O)cc2)NC(=O)[C@H](Cc2c[nH]c3ncccc23)NC(=O)[C@H](c2ccccc2)NC(=O)[C@H](C)N(C)C(=O)[C@H](Cc2c[nH]cn2)NC(=O)[C@H](CCCCN)NC(=O)[C@H](C(C)(C)C)NC(=O)[C@H](Cc2ccc(O)cc2)NC1=O

IC50: 1.06 nM
Binder: Ac-[Nva]C[Tle]YHT[Trp(7-aza)][Trp(7-aza)]E[Trp(7-aza)][Nva]HC-NH2 (linker 2-13 via m‑xylylene) [R4100]
